Read-outs that look alike come from different tables or passages of the source. Where no end group is shown, it is not given here.

In assay [1] the test system is RPA70N–BLM peptide complex. Nature of the assay: Competitive FPA assay, unlabeled pmRPA32 peptide against FITC-labeled BLM peptide on RPA70N. Format: binding. The conditions noted are these: 0–250 μM unlabeled pmRPA32 peptide; 6 μM (BLM153-165) or 13 μM (BLM290-301) RPA70N; 500 nM FITC-labeled BLM peptide; repeated three times; Fig. S4. Here is the method:
For FITC labeling, a 6-aminocaproic acid (6-aminohexanoic acid) spacer was used. Increasing concentrations (0–150 μM) of RPA70N or RPA70A were prepared in an assay buffer of 20 mM HEPES, 100 mM NaCl, 2 mM DTT, pH 7.4, in Corning 96-well black flat-bottom plates (polystyrene, nontreated). To each well, FITC-RPA32 peptide was added to a final concentration of 50 nM, and the plates were incubated on a shaker for 1 h at 25 °C. The total volume of the reaction sample was 50 μl. The emission polarization anisotropy was calculated by referring to a previous publication ([5]). The fluorescence was measured using BioTek Cytation5 and GENE5 software (GIST, Gwangju) with excitation and emission wavelengths of 485 and 528 nm, respectively. […] All experiments were repeated three times, and dissociation constants (Kd) were calculated using the “one site–specific” fitting model of the GraphPad software. The equation used in the fitting is as follows, (Eq. 1) y=Bmax×X/Kd+X where y is the fluorescence anisotropy, Bmax is the maximum specific binding, Kd is the equilibrium binding constant, and X is the concentration of RPA. […] Equilibrium fluorescence measurements were performed in the same way as described above. […]
Competitive fluorescence polarization anisotropy of BLM peptide, RPA70N, and pmRPA32 peptide. […]

Another assay concerns RPA70A (RPA70A181–304). In words: Fluorescence polarization anisotropy (FPA) assay, FITC-labeled peptide + RPA70A. It is filed as binding. Conditions: 50 nM FITC-labeled peptide, 0–150 μM RPA70A, pH 7.4, 25 °C, anisotropy not saturated, not fitted. How it is done:
RPA70N1–120 and RPA70A181–304 were expressed and purified as described previously ([5], [30]). ^15N-Labeled RPA70N was also expressed and purified with the same method using M9 medium. All of the synthesized peptides except for the FITC-labeled peptide were purchased from Lugen Sci (Gyeonggi-do, Korea). FITC-labeled peptides were purchased from AnyGen (Gwangju, Korea). Purchased peptides were dissolved in 20 mM HEPES, 100 mM NaCl, 2 mM DTT, pH 7.4, buffer to make a 2 mM stock and stored at −20 °C until use.
For FITC labeling, a 6-aminocaproic acid (6-aminohexanoic acid) spacer was used. […] The emission polarization anisotropy was calculated by referring to a previous publication ([5]). The fluorescence was measured using BioTek Cytation5 and GENE5 software (GIST, Gwangju) with excitation and emission wavelengths of 485 and 528 nm, respectively. […] All experiments were repeated three times, and dissociation constants (Kd) were calculated using the “one site–specific” fitting model of the GraphPad software. The equation used in the fitting is as follows, (Eq. 1) y=Bmax×X/Kd+X where y is the fluorescence anisotropy, Bmax is the maximum specific binding, Kd is the equilibrium binding constant, and X is the concentration of RPA. […] Equilibrium fluorescence measurements were performed in the same way as described above. […]

Assay [2] deals with T1, RPA70N (N-terminal domain of RPA70, RPA70N1–120) (Homo sapiens, UniProt P27694).
T1 construct: RPA70N1–120 and RPA70A181–304 were expressed and purified as described previously; made in house
The conditions noted are these: RPA70N binding, cited from earlier work.

Assay [3] has as its target T2, RPA70N_(1–120), N-terminal domain of RPA70 (DBD-F) (UniProt P27694 1-120).
T2 construct: Replication protein A 70-kDa subunit (RPA70), N-terminal domain (DBD-F), residues 1-120; Uniformly 15N-labelled in the NMR titrations, unlabelled in the FPA assays; also called 15N-labeled RPA70N; source: 15N-labeled form by the same method using M9 medium
In words: fluorescence polarisation; competitive FPA; 0–250 μM unlabeled pmRPA32 peptide added to 6 μM (for BLM 153-165) or 13 μM (for BLM 290-301) RPA70N and 500 nM FITC-labeled BLM peptide; 20 mM HEPES, 100 mM NaCl, 2 mM DTT, pH 7.4. The conditions noted are these: both partners purified.

Assay [4] has as its target T2, RPA70N_(1–120), N-terminal domain of …. Nature of the assay: fluorescence polarisation; FPA; 0–150 μM RPA70N or RPA70A titrated to 50 nM FITC-labeled peptide; 20 mM HEPES, 100 mM NaCl, 2 mM DTT, pH 7.4; 1 h at 25 °C; one site–specific fit. The conditions noted are these: both partners purified. A general note: Fluorescence polarisation rises when a labelled molecule tumbles more slowly, as on binding a larger partner.

The target is the same in assay [5]. The description is as above. The conditions noted are these: both partners purified. The source holds these as a separate data set.
The mark [6] stands for this setting: measured with the same FPA method.

With `C[C@H](NC(=O)CNC(=O)CNC(=O)[C@H](Cc1ccc(O)cc1)NC(=O)[C@H](CC(=O)O)NC(=O)[C@H](CC(=O)O)NC(=O)[C@H](CC(=O)O)NC(=O)CNC(=O)[C@H](Cc1ccc(O)cc1)NC(=O)[C@H](CC(=O)O)NC(=O)CCCCCNC(=S)Nc1ccc2c(c1)C(=O)OC21c2ccc(O)cc2Oc2cc(O)ccc21)C(=O)NCC(=O)NCC(=O)N[C@@H](Cc1ccc(O)cc1)C(=O)N[C@@H](CC(=O)O)C(=O)N[C@@H](CCC(N)=O)C(=O)N[C@@H](CC(=O)O)C(=O)N1CCC[C@H]1C(=O)NCC(=O)NCC(=O)N[C@@H](Cc1ccccc1)C(=O)NCC(=O)N[C@@H](CC(=O)O)C(=O)N1CCC[C@H]1C(=O)N[C@@H](C)C(=O)N1CCC[C@H]1C(=O)N[C@@H](CC(=O)O)C(=O)O` [pmRPA32], in assay [1], the “Competition with FITC-labeled BLM peptide for RPA70N” value was “did not compete with BLM peptide”. Moreover, the “Binding to RPA70A (in words)” value with RPA70A (RPA70A181–304) is “does not bind”.
On to “ATRIP54–68: RPA70N-binding sequence of ATRIP (DFTADDLEELDTLAS; UniProt Q8WXE1 54-68, looked up, fragment)”, for which, in assay [2], the Kd is 28.6 ± 3.1 µM.
“BLM153–165: acidic RPA70N-binding peptide from the N-terminal region of Bloom syndrome protein (DWDDMDDFDTSET; also: FITC via 6-aminohexanoic acid spacer, end not given here)”: the Kd in assay [2] (setting [6]) was 5.76 ± 0.86 µM.
Regarding “BLM290–301: acidic RPA70N-binding peptide from the N-terminal region of Bloom syndrome protein (EFDDDDYDTDFV; also: FITC via 6-aminohexanoic acid spacer, end not given here)”, in assay [2] (setting [6]), the Kd was 13.5 ± 2.4 µM.
On to “MRE11_539–553: RPA70N-binding sequence of MRE11 (AFSADDLMSIDLAEQ; UniProt P49959 539-553, looked up, fragment)”, for which the Kd in assay [2] is 65.8 ± 23.7 µM.
For “RAD9_297–311: RPA70N-binding sequence of RAD9 (DFANDDIDSYMIAME; UniProt Q99638 297-311, looked up, fragment)”, the Kd in assay [2] was 51.4 ± 8.9 µM.
On to “p53_44–58: RPA70N-binding sequence of p53”, for which, in assay [2], the Kd was 99.9 ± 8.4 µM.

B1: FITC-labeled BLM_(290-301) peptide (peptide, UniProt P54132 290-301, looked up)
peptide: EFDDDDYDTDFV
modifications: also: FITC via 6-aminohexanoic acid spacer, end not given here
notes: also called BLM peptide; source: synthetic peptide, bought: AnyGen
Consider B1, for which the binding result in assay [3] is “binds”.
In the case of DYGDDDYGGAGGYDQDPGGFGDPAPD (peptide, UniProt P15927 8-33, looked up, also: FITC with 6-aminohexanoic acid spacer, end not given here) [FITC-labeled pmRPA32_(8–33) peptide (phosphomimetic RPA32, eight aspartic acids)], the Kd in assay [4] was 21.5 ± 0.6 µM.
DYGDDDYGGAGGADQDPGGFGDPAPD (peptide, UniProt P15927 8-33, looked up, also: FITC with 6-aminohexanoic acid spacer, end not given here) [FITC-labeled pmRPA32-Y20A peptide] returned a Kd in assay [5] of 24.5 ± 0.7 µM.

B2: FITC-labeled BLM_(153-165) peptide (peptide, UniProt P54132 153-165, looked up)
peptide: DWDDMDDFDTSET
modifications: also: FITC via 6-aminohexanoic acid spacer, end not given here
notes: as for B1
Regarding B2, the binding result in assay [3] is given as “binds”.
DYGDDDYGGAGGYDQDPGGAGDPAPD (peptide, UniProt P15927 8-33, looked up, also: FITC with 6-aminohexanoic acid spacer, end not given here) [FITC-labeled pmRPA32-F27A peptide]: the Kd in assay [5] is 21.7 ± 0.5 µM.
Still for that read-out and setting: the same measure for DAGDDDYGGAGGYDQDPGGFGDPAPD (peptide, UniProt P15927 8-33, looked up, also: FITC with 6-aminohexanoic acid spacer, end not given here) [FITC-labeled pmRPA32-Y9A peptide]: 40 ± 0.7 µM; for DYGDDDAGGAGGYDQDPGGFGDPAPD (peptide, UniProt P15927 8-33, looked up, also: FITC with 6-aminohexanoic acid spacer, end not given here) [FITC-labeled pmRPA32-Y14A peptide]: 37 ± 0.6 µM.

As a reminder, the Kd is the concentration at which binding is half-saturated.

(Values after PMC7939470 (The Journal of Biological Chemistry, 2021).)
